# Assay results published in US20210063414A1, “METHODS FOR PREVENTING AND/OR TREATING BONE LOSS CONDITIONS BY MODULATING IRISIN” (Dana-Farber Cancer Institute, Inc., priority 2018, published 2021).
# B1: irisin: secreted cleaved form of FNDC5; recombinant human/mouse irisin with C-terminal his tag produced in HEK293 cells (protein)
# chain: DSPSAPVNVTVRHLKANSAVVSWDVLEDEVVIGFAISQQKKDVRMLRFIQEVNTTTRSCALWDLEEDTEYIVHVQAISIQGQSPASEPVLFKTPREAEKMASKNKDEVTMKE
# modifications: left off: small tags and cut ends
# notes: secreted cleaved form of FNDC5; recombinant human/mouse irisin with C-terminal his tag produced in HEK293 cells
# Assays:
# [1] = system: inguinal fat; assay: Irisin injection in mice: Ucp1/Dio2 mRNA and Ucp1 protein in inguinal fat; assay type: in vivo
# Procedure: (§1) FIG. 18A-FIG. 18B show mRNA and protein levels of indicated genes. 1 mg/kg irisin was injected to 8-week old mice every other day for 6 days. mRNA levels of indicated genes in inguinal fat were analyzed by qRT-PCR. Cyclophilin was used for housekeeping gene (FIG. 18A). Inguinal fats were also lysed to detect the indicated protein level using immunoblot analysis (FIG. 18B). FIGS. 18C and 18D show mRNA and protein levels of indicated genes. Mice were treated and analyzed as (A-B) with addition of coinjection of […] control RGD peptide or cyclo RGDyK (cRGDyK). mRNA levels of indicated genes in inguinal fat were analyzed by qRT-PCR. Cyclophilin was used for house-keeping gene (FIG. 18C). Inguinal fats were also lysed to detect the indicated protein level using immunoblot analysis (FIG. 18D). […] Ucp1 mRNA level was analyzed by qRT-PCR. […]
# RNA was extracted from cultured cells or frozen tissues using TRIzol® (Thermo Fischer Scientific) and purified with RNeasy® mini kit (QIAGEN 74106). […] To perform qRT-PCR analysis, normalized RNA was reverse transcribed using a high-capacity cDNA reverse-transcription kit (Applied Biosystems™). cDNA was analyzed by qRT-PCR with indicated primers. Relative mRNA levels were calculated using the comparative CT method and normalized to cyclophilin mRNA. […]
# [2] = system: primary inguinal fat cells; assay: Ucp1 mRNA in primary inguinal fat cells; assay type: cell-based, mice; settings: irisin during 6 days differentiation
# Procedure: as §1
# Inguinal fat tissue from 6 weeks old mice was dissected and washed with PBS, minced and digested for 1 hour at 37° C. in PBS containing 10 mM CaCl2, 2.4 U/ml dispase II (Roche) and 10 mg/ml collagenase D (Roche). […] After that, cells were maintained in 1 μM rosiglitazone in the presence of 0, 0.5, 5 or 50 ng/ml recombinant […] his-tag irisin protein for 4 days with medium change every other day. mRNA levels were analyzed as described in gene expression analysis. […]
molecule,measurement,setting,value
B1,Ucp1 protein level in whole tissue (western blot),"[1]; mice, irisin injections",also increased
same,increase of mRNA level of Ucp1,"[1]; wild-type mice, 1 mg/kg irisin every other day for 6 days",more than 2 fold
same,gene expression of Ucp1,[2],increased the gene expression of Ucp1
